Test results as given in patent publication CN115594758A (NANJING JINGZHUN BIOTECHNOLOGY CO LTD, dated 2023).

Target: SARS-CoV-2假病毒 (病毒包膜糖蛋白 on MLV pseudovirus) (SARS-CoV-2, UniProt P0DTC2 14-1273)
Experiment: cell-based or functional assay

B1: 纳米抗体SA4 (VHH)
VHH: QVQLQESGGGLVQPGGSLRLSCAASGSFFEFGTVGWFRQAPGKQRELVSRITGNDHRYYADSVKGRFTISRDNDETTVYLQMDSLKPEDTAIYHCNILEGQRWSNYWGQGTQVTVSH
- 假病毒中和实验 IC50 (GFP by flow cytometry, VeroE6-hACE2 cells): 12.7 nM
